Laboratory results published in patent publication US20250368742A1 (D2M BIOTHERAPEUTICS, published 2025).
Residue numbers refer to the chain shown, from its start.

T1: MICA008-ECD-HISAvi (human)
T1 construct: Two sources under one name in the two kinetic assays; also called MICA008 polypeptide
T1 chain: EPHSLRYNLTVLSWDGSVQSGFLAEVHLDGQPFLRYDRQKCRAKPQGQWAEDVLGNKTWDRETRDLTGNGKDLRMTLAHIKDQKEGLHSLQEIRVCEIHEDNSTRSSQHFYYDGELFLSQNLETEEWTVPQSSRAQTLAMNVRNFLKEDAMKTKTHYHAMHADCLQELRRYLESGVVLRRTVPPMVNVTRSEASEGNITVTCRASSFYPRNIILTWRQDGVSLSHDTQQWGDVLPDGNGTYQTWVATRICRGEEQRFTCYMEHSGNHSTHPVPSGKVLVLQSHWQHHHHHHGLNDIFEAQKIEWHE

T2: MICB005-ECD-HISAvi (human, UniProt Q29980 24-309)
T2 construct: Two sources under one name in the two kinetic assays; also called MICB005 polypeptide
T2 sequence: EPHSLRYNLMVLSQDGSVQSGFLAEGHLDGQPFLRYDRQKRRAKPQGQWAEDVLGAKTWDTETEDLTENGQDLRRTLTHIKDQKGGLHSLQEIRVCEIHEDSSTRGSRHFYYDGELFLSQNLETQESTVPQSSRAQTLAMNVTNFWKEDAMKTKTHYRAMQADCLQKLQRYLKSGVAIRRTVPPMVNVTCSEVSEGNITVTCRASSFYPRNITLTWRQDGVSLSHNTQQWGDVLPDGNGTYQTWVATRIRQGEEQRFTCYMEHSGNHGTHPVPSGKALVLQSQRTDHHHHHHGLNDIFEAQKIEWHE

T3: MICA004-ECD-HISAvi (human)
T3 construct: also called MICA004 polypeptide
T3 chain: T1 chain with L122V, G175S, T181R, I213T, R251Q

T4: MICA002-ECD-HISAvi (human, UniProt Q29983 24-308)
T4 construct: also called MICA002 polypeptide
T4 chain: T1 chain with W14G, Y36C, V129M, E173K, S206G, R210W, I213T, T215S, R251Q

B1: 3F9 (antibody, human IgG1, kappa, V domains shown)
VH: QVQLVESGGGLVKPGGSLRLSCAASGFTFSNYAMSWIRQAPGKGLEWVSYISPGGDYIYYADSVKGRFTISRDNAKNSLYLQMNSLRAEDTAVYYCTTDRRHYGSYAMDYWGQGTLVTVSS
VL: DIVMTQSPLSLPVTPGEPASISCRSSKSLLHSNLNTYLYWFLQKPGQSPQILIYRMSNLASGVPDRFSGSGSGTAFTLKISRVEAEDVGVYYCMQHLEYPFTFGPGTKLEIKR
notes: also called benchmark 3F9
B2: 1D5 (antibody, human IgG1, kappa, V domains shown)
VH: EIQLQQSGPELVKPGASVKVSCKASGYAFTSQNIYWVKQSHGKSLEWIGYIEPYNVVPMYNPKFKGKATLTVDKSSSSAYIHLNSLTSEDSAIYYCARSGSSNFDYWGQGTTLTVSS
VL: EIILTQSPTTMAASPGEKITITCSASSSISSHYLHWYQQKSGFSPKLLIYRTSNLASGVPARFSGSGSGTSYSLTIGTMEAEDVATYYCQQGSSLPLTFGAGTKVEIKR
notes: also called ID5

Legend:
human MICB005 on cells [1] = biological target: T5, human MICB005 on cells (human); experiment: flow cytometry on CHO-MICB005 cells; column Control_2w (control of the 2-week experiment)
T5 construct: whole, on cells; also called CHO-MICB005; C1R-MICB005
Description: (§1) The plate was centrifuged, and cells were washed with PBS three times. […] After incubation for 30 minutes at room temperature, cells were washed with PBS twice. Signals of APC were determined by flow cytometry (Attune™ CytPix™, ThermoFisher) within the population of live cells (viability dye PI negative).
(§2) The EC50 values were calculated based on non-linear fitting curves by GraphPad Prism software.

human MICA008 on cells [2] = biological target: T6, human MICA008 on cells (human); experiment: flow cytometry, HeLa cells (MICA008)
T6 construct: whole, on cells; also called CHO-MICA008; C1R-MICA008

human MICA008 on cells [3] = biological target: T6, human MICA008 on cells; experiment: flow cytometry, HeLa cells (MICA008); remark: listed apart in the source
Description: IgG1 is an isotype control (IgG). The antibody binding signals of APC (gMFI) to MICA/B were measured by flow cytometry.
After an incubation time of 30 minutes, the plate was centrifuged and cells were washed with PBS three times. […] After mixing for 30 minutes at room temperature, cells were washed with PBS twice. Fluorescent signal was detected and quantified by flow cytometry (Attune™ CytPix™, ThermoFisher) within the population of live cells (viability dye PI negative).

human MICA008 on cells [4] = biological target: T6, human MICA008 on cells; experiment: flow cytometry, CHO-MICA008 cells
human MICB005 on cells [5] = biological target: T5, human MICB005 on cells; experiment: flow cytometry on CHO-MICB005 cells; column Control_1w (control of the 1-week experiment)
Description: as §1, §2

MICA008-ECD-HISAvi [6] = biological target: T1, MICA008-ECD-HISAvi; experiment: SPR (Carterra); antibody captured by anti-human Fc, monomeric ECD antigen injected;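 further: dissociation phase followed for about 10 min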
Description: (§3) The dissociation kinetics were monitored for approximately 10 minutes. The chip surface was regenerated between binding cycles with 10 mM glycine HCl, pH 1.7. Binding kinetics were analyzed using software supplied by the manufacturer.

MICB005-ECD-HISAvi [7] = biological target: T2, MICB005-ECD-HISAvi; experiment: as above
Description: as §3

MICA004-ECD-HISAvi [8] = biological target: T3, MICA004-ECD-HISAvi; experiment: as above
Description: as §3

MICA002-ECD-HISAvi [9] = biological target: T4, MICA002-ECD-HISAvi; experiment: as above
Description: as §3

MICA009Avi = biological target: T7, MICA009Avi (human); experiment: BLI (GatorPrime); antibody on anti-hIgG Fc probe, monomeric antigen in solution;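 further: binding kinetics of anti-MICA/B antibodies measured by biolayer interferometry, with dissociation followed for about 10 min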
T7 construct: extracellular domain
Description: (§4) The binding kinetics of the antibodies were also measured using the GatorPrime BLI (Biolayer Interferometry) system (Gator Bio, USA). Specifically, the anti-MICA/B antibodies were loaded with HFC (Anti-hIgG Fc, Gator Bio, Cat #: 160003). […] The dissociation kinetics were monitored for approximately 10 minutes. The probes were regenerated between binding cycles with Regeneration Buffer (Gator Bio, Cat #: 120012). Binding kinetics were analyzed using software supplied by the manufacturer.

[10] = biological target: T8, Cynomolgus monkey MICA (cynoMICA) (Cynomolgus monkey (Macaca fascicularis)); experiment: as above
T8 construct: also called cyno monkey MICA; cyno MIC protein
Description: as §4

MICA008-ECD-HISAvi [11] = biological target: T1, MICA008-ECD-HISAvi; experiment: as above
Description: as §4

MICB005-ECD-HISAvi [12] = biological target: T2, MICB005-ECD-HISAvi; experiment: as above
Description: as §4

MICA004-ECD-HISAvi [13] = biological target: T3, MICA004-ECD-HISAvi; experiment: as above
Description: as §4

MICA002-ECD-HISAvi [14] = biological target: T4, MICA002-ECD-HISAvi; experiment: as above
Description: as §4

T7 sequence (Q29983 24-307): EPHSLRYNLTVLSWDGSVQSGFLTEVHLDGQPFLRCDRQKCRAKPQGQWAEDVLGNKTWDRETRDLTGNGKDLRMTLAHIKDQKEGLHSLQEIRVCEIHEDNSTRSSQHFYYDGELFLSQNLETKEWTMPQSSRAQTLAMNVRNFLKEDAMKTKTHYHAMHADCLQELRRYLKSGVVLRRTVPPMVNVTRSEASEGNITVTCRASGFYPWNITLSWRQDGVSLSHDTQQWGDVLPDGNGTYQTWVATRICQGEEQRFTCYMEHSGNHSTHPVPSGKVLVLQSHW
T6 sequence (Q29983 whole entry): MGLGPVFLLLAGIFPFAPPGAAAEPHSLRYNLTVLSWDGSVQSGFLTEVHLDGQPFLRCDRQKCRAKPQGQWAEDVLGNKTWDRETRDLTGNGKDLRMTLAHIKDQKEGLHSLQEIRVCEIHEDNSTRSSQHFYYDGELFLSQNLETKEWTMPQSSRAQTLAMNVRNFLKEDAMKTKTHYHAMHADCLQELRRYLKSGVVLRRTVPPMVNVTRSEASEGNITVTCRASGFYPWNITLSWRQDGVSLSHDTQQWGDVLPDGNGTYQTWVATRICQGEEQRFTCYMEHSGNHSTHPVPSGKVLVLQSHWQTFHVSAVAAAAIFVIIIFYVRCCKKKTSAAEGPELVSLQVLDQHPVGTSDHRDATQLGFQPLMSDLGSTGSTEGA

| Binder | EC50 (human MICB005 on cells [1]) | EC50 (human MICA008 on cells [2]) | EC50 (human MICA008 on cells [3]) | EC50 (human MICA008 on cells [4]) | EC50 (human MICB005 on cells [5]) | Kd (MICA008-ECD-HISAvi [6]) | Kd (MICB005-ECD-HISAvi [7]) | Kd (MICA004-ECD-HISAvi [8]) | Kd (MICA002-ECD-HISAvi [9]) | Kd (MICA009Avi) | Kd [10] | Kd (MICA008-ECD-HISAvi [11]) | Kd (MICB005-ECD-HISAvi [12]) | Kd (MICA004-ECD-HISAvi [13]) | Kd (MICA002-ECD-HISAvi [14]) |
| --- | --- | --- | --- | --- | --- | --- | --- | --- | --- | --- | --- | --- | --- | --- | --- |
| B1 | 0.956 µg/mL | 0.651 µg/mL | 0.115 µg/mL | 0.272 µg/mL | 0.836 µg/mL | 2.82 nM | 9.29 nM | 4.05 nM | 5.67 nM | 0.936 nM | 14.3 nM | 0.295 nM | 2.19 nM | 1.08 nM | 1.35 nM |
| B2 | 0.264 µg/mL | 0.133 µg/mL | 0.034 µg/mL | 0.06 µg/mL | 0.237 µg/mL | 1.79 nM | 2.3 nM | 1.35 nM | 0.47 nM | 0.11 nM | 5.2 nM | 0.026 nM | 0.195 nM | 0.101 nM | 0.0757 nM |
